Assay results published in patent US20230076063.

How the values were obtained:
Assay in all cases: cell_activity
[1] = system: MamA E270A E270A (Mycobacterium tuberculosis); settings: SMRT sequencing kinetics; partial stochastic methylation
[2] = system: MamA W136R W136R (Mycobacterium tuberculosis); settings: SMRT sequencing kinetics; methylation knockout, binding itself not measured
[3] = system: MamA G152S G152S (Mycobacterium tuberculosis); settings: SMRT sequencing kinetics; partial stochastic methylation
[4] = system: MamB K1033T K1033T (Mycobacterium tuberculosis); settings: SMRT sequencing kinetics; single isolate

## CTGGAG (double strand) [MamA target motif sites]
[1]
  activity (mean SMALR native score): 0.0558
[2]
  activity (mean SMALR native score): -0.107
[3]
  activity (mean SMALR native score): 0.766

## MamB target motif sites
[4]
  activity (mean SMALR native score): 0.299
